Molecular target: ErbB2 (UniProt P04626)

## Src
  Src activity (Src kinase assay, Src-Y416 phosphorylation) after trastuzumab treatment: trastuzumab inhibited Src activity in ErbB2 overexpressing cells
